Reference: patent US20160090401A1 (UNIVERSITY OF BRISTOL, published 2016)
Bridge positions count the residues as written; N and C are the ends. I, II: the chains in the order shown.

B3: CC-Di-B (peptide)
peptide: Ac-GKIAALKKKNAALKQKIAALKQGYW-NH2
notes: Free module

Legend:
CC-Di-B = molecular target: B3; experiment: CD-monitored thermal denaturation over a range of peptide concentrations, extrapolated to 20 °C; dissociation of the heterodimer (two-state)
[1] = molecular target: the molecule itself; experiment: CD spectroscopy of the peptide alone (no homomeric coiled coil)
CC-Tri3-CC-Di-BQ = molecular target: T1, CC-Tri3-CC-Di-BQ (N-terminal acetyl; C-terminal amide; Cys in an asymmetric disulfide with the Cys of the trimer chain; N-terminal acetyl; C-terminal amide; Cys in an asymmetric disulfide with the Cys of the CC-Di-BQ …); experiment: mixing with the respective partner in PBS, 50 µM; SEM
T1 peptide 1: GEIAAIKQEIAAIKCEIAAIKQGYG
T1 peptide 2: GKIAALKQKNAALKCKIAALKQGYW

CC-Di-BI = molecular target: T2, CC-Di-BI (N-terminal acetyl; C-terminal amide); experiment: method not stated for this variant
T2 construct: also called basic peptide of CC-Di-AIBI
T2 peptide: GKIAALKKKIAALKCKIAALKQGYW

[2] = molecular target: the molecule itself; experiment: CD-monitored thermal denaturation over a range of peptide concentrations, extrapolated to 20 °C; dissociation of the homotrimer (two-state)
CC-Di-AB = molecular target: T3, CC-Di-AB (N-terminal acetyl (Ac-); C-terminal amide (printed -NH)); experiment: CD thermal melting of the mixture, the same as the average of the two independent profiles
T3 construct: also called heterodimer CC-Di-AB; heterodimeric coiled coil
T3 peptide 1: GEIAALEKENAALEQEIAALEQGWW
T3 peptide 2: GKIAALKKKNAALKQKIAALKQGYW

Ac-GEIAALEKENAALEQEIAALEQGWW-NH2 (Free module) [CC-Di-A]
Kd (CC-Di-B): 58.3 nM
binding result [1]: no binding (tested: micromolar range)

B1: CC-Tri3-CC-Di-AQ (other)
peptide 1: Ac-GEIAAIKQEIAAIKCEIAAIKQGYG-NH2
peptide 2: Ac-GEIAALEQENAALECEIAALEQGWW-NH2
modifications: disulfide I:15-II:15 (inferred)
binding result (CC-Tri3-CC-Di-BQ): binds

B2: CC-Di-AI (peptide)
peptide: Ac-GEIAALEKEIAALECEIAALEQGWW-NH2
notes: also called acidic peptide of CC-Di-AIBI
affinity relative to the CC-Di-AB parent (CC-Di-BI): > 100 fold

B3
binding result [1]: no binding (tested: micromolar range)

B4: CC-Tri3 (peptide)
peptide: Ac-GEIAAIKKEIAAIKQEIAAIKQGYG-NH2
notes: also called homotrimer CC-Tri3; homotrimeric coiled coil
Kd [2]: 0.0399 pM
binding result (CC-Di-AB): no binding
